# Experimental data as given in PMC6879534, “Structural basis for DNA unwinding at forked dsDNA by two coordinating Pif1 helicases” (Nature Communications, 2019).
# Tests used:
# BaPif1 [1] = settings: ssDNA-stimulated ATPase
# BaPif1 [2] = biological target: BaPif1 (Bacteroides fragilis, UniProt Z9XEH3VG65); settings: ssDNA-stimulated ATPase
# [3] = biological target: BaPif1 E323A/K405A (Bacteroides sp (abstract); Bacterioides fragilis (methods))
# [4] = biological target: BaPif1 F379A (Bacteroides fragilis (title/abstract: Bacteroides sp)) (UniProt A0A373G551); test: fluorescence polarization; settings: Fluorescence polarization: 2.5 nM T15-3'F, buffer and temperature not in the material; crystals: 80 mM NaCl, 40 mM sodium cacodylate pH 6.0, 35% MPD, 12 mM …
# [5] = biological target: BaPif1 H236A (Bacteroides fragilis (title/abstract: Bacteroides sp)) (UniProt A0A373G551); test: fluorescence polarization; settings: Fluorescence polarization: 2.5 nM T15-3'F, buffer and temperature not in the material; crystals: 80 mM NaCl, 40 mM sodium cacodylate pH 6.0, 35% MPD, 12 mM …
# [6] = biological target: BaPif1 wild type (Bacteroides fragilis (title/abstract: Bacteroides sp)) (UniProt A0A373G551); test: fluorescence polarization; settings: Fluorescence polarization: 2.5 nM T15-3'F, buffer and temperature not in the material; crystals: 80 mM NaCl, 40 mM sodium cacodylate pH 6.0, 35% MPD, 12 mM …
# Sequence of BaPif1 (5FHD_1 entry or part of it E323K): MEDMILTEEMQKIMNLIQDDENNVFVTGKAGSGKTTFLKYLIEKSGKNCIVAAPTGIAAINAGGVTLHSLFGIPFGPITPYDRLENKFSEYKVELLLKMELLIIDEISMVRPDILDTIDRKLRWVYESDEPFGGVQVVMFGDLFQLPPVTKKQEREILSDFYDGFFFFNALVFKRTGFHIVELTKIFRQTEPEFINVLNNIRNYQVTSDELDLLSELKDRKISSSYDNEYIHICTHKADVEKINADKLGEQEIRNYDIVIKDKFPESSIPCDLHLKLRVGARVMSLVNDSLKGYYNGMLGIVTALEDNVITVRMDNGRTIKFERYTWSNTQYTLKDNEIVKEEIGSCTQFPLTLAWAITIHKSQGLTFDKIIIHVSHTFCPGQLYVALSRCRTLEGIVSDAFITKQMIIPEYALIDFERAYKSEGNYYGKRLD
compound,measurement,setting,value
Nc1ncnc2c1ncn2[C@@H]1O[C@H](COP(=O)(O)OP(=O)(O)OP(=O)(O)O)[C@@H](O)[C@H]1O [ATP],ATP hydrolysis rate,BaPif1 [1],The rates of ATP hydrolysis by both the E323A/K405A and E323K variants
same,ATP hydrolysis rate,BaPif1 [2],only slightly increased relative to the wild type enzyme
BaPif1 E323A/K405A (enzyme),"rate of unwinding of the leading duplex (rapid chemical quench flow, single turnover)",[3],33 s⁻¹
same,"rate of unwinding of the parental duplex (rapid chemical quench flow, single turnover)",[3],31 s⁻¹
TTTTTTTTTTTTTTT [T15-3'F],Kd,[4],250 nM
same,Kd,[5],200 nM
same,Kd,[6],74 nM
